Results published in publication PMC10540216, “Activity Guided Azide-methyllysine Photo-trapping for Substrate Profiling of Lysine Demethylases” (Journal of the American Chemical Society, 2023).

Tested on: KDM4A-I71AzF
Assay: CASI: photo-crosslinking with HEK293T cell extracts, StrepTactin enrichment and LC-MS/MS proteomics;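 further: lysates from HEK293T cells pretreated with a KDM4 inhibitor to raise proteome methylation, affinity-purified after ±UV, gel-resolved, trypsin-digested, with exclusive unique peptides per protein averaged per condition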
Assay type: binding, human
Conditions: sheet "Final results but with 0.01"

B1: CPSF7_HUMAN (protein, UniProt Q8N684 1-471, looked up)
Cleavage and polyadenylation …: MSEGVDLIDIYADEEFNQDPEFNNTDQIDLYDDVLTATSQPSDDRSSSTEPPPPVRQEPSPKPNNKTPAILYTYSGLRNRRAAVYVGSFSWWTTDQQLIQVIRSIGVYDVVELKFAENRANGQSKGYAEVVVASENSVHKLLELLPGKVLNGEKVDVRPATRQNLSQFEAQARKRECVRVPRGGIPPRAHSRDSSDSADGRATPSENLVPSSARVDKPPSVLPYFNRPPSALPLMGLPPPPIPPPPPLSSSFGVPPPPPGIHYQHLMPPPPRLPPHLAVPPPGAIPPALHLNPAFFPPPNATVGPPPDTYMKASAPYNHHGSRDSGPPPSTVSEAEFEDIMKRNRAISSSAISKAVSGASAGDYSDAIETLLTAIAVIKQSRVANDERCRVLISSLKDCLHGIEAKSYSVGASGSSSRKRHRSRERSPSRSRESSRRHRDLLHNEDRHDDYFQERNREHERHRDRERDRHH
B1 was tested, and the “Fold change (+UV/-UV)” value was 1.

B2: CACP_HUMAN (protein, UniProt P43155 1-626, looked up)
Carnitine O-acetyltransferase: MLAFAARTVVKPLGFLKPFSLMKASSRFKAHQDALPRLPVPPLQQSLDHYLKALQPIVSEEEWAHTKQLVDEFQASGGVGERLQKGLERRARKTENWLSEWWLKTAYLQYRQPVVIYSSPGVMLPKQDFVDLQGQLRFAAKLIEGVLDFKVMIDNETLPVEYLGGKPLCMNQYYQILSSCRVPGPKQDTVSNFSKTKKPPTHITVVHNYQFFELDVYHSDGTPLTADQIFVQLEKIWNSSLQTNKEPVGILTSNHRNSWAKAYNTLIKDKVNRDSVRSIQKSIFTVCLDATMPRVSEDVYRSHVAGQMLHGGGSRLNSGNRWFDKTLQFIVAEDGSCGLVYEHAAAEGPPIVTLLDYVIEYTKKPELVRSPLVPLPMPKKLRFNITPEIKSDIEKAKQNLSIMIQDLDITVMVFHHFGKDFPKSEKLSPDAFIQMALQLAYYRIYGQACATYESASLRMFHLGRTDTIRSASMDSLTFVKAMDDSSVTEHQKVELLRKAVQAHRGYTDRAIRGEAFDRHLLGLKLQAIEDLVSMPDIFMDTSYAIAMHFHLSTSQVPAKTDCVMFFGPVVPDGYGVCYNPMEAHINFSLSAYNSCAETNAARLAHYLEKALLDMRALLQSHPRAKL
For B2, the “Fold change (+UV/-UV)” value was 0.

B3: SYDC_HUMAN (protein, UniProt P14868 1-501, looked up)
Aspartate--tRNA ligase, …: MPSASASRKSQEKPREIMDAAEDYAKERYGISSMIQSQEKPDRVLVRVRDLTIQKADEVVWVRARVHTSRAKGKQCFLVLRQQQFNVQALVAVGDHASKQMVKFAANINKESIVDVEGVVRKVNQKIGSCTQQDVELHVQKIYVISLAEPRLPLQLDDAVRPEAEGEEEGRATVNQDTRLDNRVIDLRTSTSQAVFRLQSGICHLFRETLINKGFVEIQTPKIISAASEGGANVFTVSYFKNNAYLAQSPQLYKQMCICADFEKVFSIGPVFRAEDSNTHRHLTEFVGLDIEMAFNYHYHEVMEEIADTMVQIFKGLQERFQTEIQTVNKQFPCEPFKFLEPTLRLEYCEALAMLREAGVEMGDEDDLSTPNEKLLGHLVKEKYDTDFYILDKYPLAVRPFYTMPDPRNPKQSNSYDMFMRGEEILSGAQRIHDPQLLTERALHHGIDLEKIKAYIDSFRFGAPPHAGGGIGLERVTMLFLGLHNVRQTSMFPRDPKRLTP
In the case of B3, the “Fold change (+UV/-UV)” value is reported as 2.

B4: NUCB1_HUMAN (protein, UniProt Q02818 27-461, looked up)
Nucleobindin-1: VPLERGAPNKEETPATESPDTGLYYHRYLQEVIDVLETDGHFREKLQAANAEDIKSGKLSRELDFVSHHVRTKLDELKRQEVSRLRMLLKAKMDAEQDPNVQVDHLNLLKQFEHLDPQNQHTFEARDLELLIQTATRDLAQYDAAHHEEFKRYEMLKEHERRRYLESLGEEQRKEAERKLEEQQRRHREHPKVNVPGSQAQLKEVWEELDGLDPNRFNPKTFFILHDINSDGVLDEQELEALFTKELEKVYDPKNEEDDMREMEEERLRMREHVMKNVDTNQDRLVTLEEFLASTQRKEFGDTGEGWETVEMHPAYTEEELRRFEEELAAREAELNAKAQRLSQETEALGRSQGRLEAQKRELQQAVLHMEQRKQQQQQQQGHKAPAAHPEGQLKFHPDTDDVPVPAPAGDQKEVDTSEKKLLERLPEVEVPQHL
B4 was tested, and the “Fold change (+UV/-UV)” value was 3.
